In article PMC10281804 (2023):

B1: mCherry-KANK1 wild type (human full-length KANK1) [human] / GFP-talin1-cBAK [mouse] (parent complex)
chain 1: MAHTTKVNGSASGKAGDILSGDQDKEQKDPYFVETPYGYQLDLDFLKYVDDIQKGNTIKRLNIQKRRKPSVPCPEPRTTSGQQGIWTSTESLSSSNSDDNKQCPNFLIARSQVTSTPISKPPPPLETSLPFLTIPENRQLPPPSPQLPKHNLHVTKTLMETRRRLEQERATMQMTPGEFRRPRLASFGGMGTTSSLPSFVGSGNHNPAKHQLQNGYQGNGDYGSYAPAAPTTSSMGSSIRHSPLSSGISTPVTNVSPMHLQHIREQMAIALKRLKELEEQVRTIPVLQVKISVLQEEKRQLVSQLKNQRAASQINVCGVRKRSYSAGNASQLEQLSRARRSGGELYIDYEEEEMETVEQSTQRIKEFRQLTADMQALEQKIQDSSCEASSELRENGECRSVAVGAEENMNDIVVYHRGSRSCKDAAVGTLVEMRNCGVSVTEAMLGVMTEADKEIELQQQTIESLKEKIYRLEVQLRETTHDREMTKLKQELQAAGSRKKVDKATMAQPLVFSKVVEAVVQTRDQMVGSHMDLVDTCVGTSVETNSVGISCQPECKNKVVGPELPMNWWIVKERVEMHDRCAGRSVEMCDKSVSVEVSVCETGSNTEESVNDLTLLKTNLNLKEVRSIGCGDCSVDVTVCSPKECASRGVNTEAVSQVEAAVMAVPRTADQDTSTDLEQVHQFTNTETATLIESCTNTCLSTLDKQTSTQTVETRTVAVGEGRVKDINSSTKTRSIGVGTLLSGHSGFDRPSAVKTKESGVGQININDNYLVGLKMRTIACGPPQLTVGLTASRRSVGVGDDPVGESLENPQPQAPLGMMTGLDHYIERIQKLLAEQQTLLAENYSELAEAFGEPHSQMGSLNSQLISTLSSINSVMKSASTEELRNPDFQKTSLGKITGNYLGYTCKCGGLQSGSPLSSQTSQPEQEVGTSEGKPISSLDAFPTQEGTLSPVNLTDDQIAAGLYACTNNESTLKSIMKKKDGNKDSNGAKKNLQFVGINGGYETTSSDDSSSDESSSSESDDECDVIEYPLEEEEEEEDEDTRGMAEGHHAVNIEGLKSARVEDEMQVQECEPEKVEIRERYELSEKMLSACNLLKNTINDPKALTSKDMRFCLNTLQHEWFRVSSQKSAIPAMVGDYIAAFEAISPDVLRYVINLADGNGNTALHYSVSHSNFEIVKLLLDADVCNVDHQNKAGYTPIMLAALAAVEAEKDMRIVEELFGCGDVNAKASQAGQTALMLAVSHGRIDMVKGLLACGADVNIQDDEGSTALMCASEHGHVEIVKLLLAQPGCNGHLEDNDGSTALSIALEAGHKDIAVLLYAHVNFAKAQSPGTPRLGRKTSPGPTHRGSFD
chain 2: MVALSLKISIGNVVKTMQFEPSTMVYDACRMIRERIPEALAGPPNDFGLFLSDDDPKKGIWLEAGKALDYYMLRNGDTMEYRKKQRPLKIRMLDGTVKTIMVDDSKTVTDMLMTICARIGITNHDEYSLVRELMEEKKDEGTGTLRKDKTLLRDEKKMEKLKQKLHTDDELNWLDHGRTLREQGVEEHETLLLRRKFFYSDQNVDSRDPVQLNLLYVQARDDILNGSHPVSFDKACEFAGFQCQIQFGPHNEQKHKAGFLDLKDFLPKEYVKQKGERKIFQAHKNCGQMSEIEAKVRYVKLARSLKTYGVSFFLVKEKMKGKNKLVPRLLGITKECVMRVDEKTKEVIQEWSLTNIKRWAASPKSFTLDFGDYQDGYYSVQTTEGEQIAQLIAGYIDIILKKKKSKDHFGLEGDEESTMLEDSVSPKKSTVLQQQYNRVGKVEHGSVALPAIMRSGASGPENFQVGSMPPAQQQITSGQMHRGHMPPLTSAQQALTGTINSSMQAVQAAQATLDDFETLPPLGQDAASKAWRKNKMDESKHEIHSQVDAITAGTASVVNLTAGDPAETDYTAVGCAVTTISSNLTEMSRGVKLLAALLEDEGGNGRPLLQAAKGLAGAVSELLRSAQPASAEPRQNLLQAAGNVGQASGELLQQIGESDTDPHFQDVLMQLAKAVASAAAALVLKAKSVAQRTEDSGLQTQVIAAATQCALSTSQLVACTKVVAPTISSPVCQEQLVEAGRLVAKAVEGCVSASQAATEDGQLLRGVGAAATAVTQALNELLQHVKAHATGAGPAGRYDQATDTILTVTENIFSSMGDAGEMVRQARILAQATSDLVNAIKADAEGESDLENSRKLLSAAKILADATAKMVEAAKGAAAHPDSEEQQQRLREAAEGLRMATNAAAQNAIKKKLVQRLEHAAKQAAASATQTIAAAQHAASAPKASAGPQPLLVQSCKAVAEQIPLLVQGVRGSQAQPDSPSAQLALIAASQSFLQPGGKMVAAAKASVPTIQDQASAMQLSQCAKNLGTALAELRTAAQKAQEACGPLEMDSALSVVQNLEKDLQEIKAAARDGKLKPLPGETMEKCTQDLGNSTKAVSSAIAKLLGEIAQGNENYAGIAARDVAGGLRSLAQAARGVAALTSDPAVQAIVLDTASDVLDKASSLIEEAKKASGHPGDPESQQRLAQVAKAVTQALNRCVSCLPGQRDVDNALRAVGDASKRLLSDSLPPSTGTFQEAQSRLNEAAAGLNQAATELVQASRGTPQDLARASGRFGQDFSTFLEAGVEMAGQAPSQEDRAQVVSNLKGISMSSSKLLLAAKALSTDPASPNLKSQLAAAARAVTDSINQLITMCTQQAPGQKECDNALRQLETVRELLENPVQPINDMSYFGCLDSVMENSKVLGEAMTGISQNAKNGNLPEFGDAIATASKALCGFTEAAAQAAYLVGVSDPNSQAGQQGLVEPTQFARANQAIQMACQSLGEPGCTQAQVLSAATIVAKHTSALCNSCRLASARTANPTAKRQFVQSAKEVANSTANLVKTIKALDGDFTEENRAQCRAATAPLLEAVDNLSAFASNPEFSSVPAQISPEGRAAMEPIVISAKTMLESAGGLIQTARALAVNPRDPPRWSVLAGHSRTVSDSIKKLITSMRDKAPGQLECETAIAALNSCLRDLDQASLAAVSQQLAPREGISQEALHTQMLTAVQEISHLIEPLASAARAEASQLGHKVSQMAQYFEPLTLAAVGAASKTLSHPQQMALLDQTKTLAESALQLLYTAKEAGGNPKQAAHTQEALEEAVQMMTEAVEDLTTTLNEAASAAGVVGGMVDSITQAINQLDEGPMGDPEGSFVDYQTTMVRTAKAIAVTVQEMVTKSNTSPEELGPLANQLTSDYGRLASQAKPAAVAAENEEIGAHIKHRVQELGHGCSALVTKAGALQCSPSDVYTKKELIECARRVSEKVSHVLAALQAGNRGTQACITAASAVSGIIADLDTTIMFATAGTLNREGAETFADHREGILKTAKVLVEDTKVLVQNAAGSQEKLAQAAQSSVATITRLADVVKLGAASLGAEDPETQVVLINAVKDVAKALGDLISATKAAAGKVGDDPAVWQLKNSAKVMVTNVTSLLKTVKAVEDEATKGTRALEATTEHIRQELAVFCSPEPPAKTSTPEDFIRMTKGITMATAKAVAAGNSCRQEDVIATANLSRRAIADMLRACKEAAFHPEVAPDVRLRALHYGRECANGYLELLDHVLLTLQKPNPDLKQQLTGHSKRVAGSVTELIQAAEAMKGTEWVDPEDPTVIAENELLGAAAAIEAAAKKLEQLKPRAKPKEADESLNFEEQILEAAKSIAAATSALVKAASAAQRELVAQGKVGAIPANALDDGQWSQGLISAARMVAAATNNLCEAANAAVQGHASQEKLISSAKQVAASTAQLLVACKVKADQDSEAMKRLQAAGNAVKRASDNLVKAAQKAAAFEDQENETVVVKEKMVGGIAQIIAAQEEMLRKERELEEARKKLAQIRQQQYKFLPSELRDEH

Variants of: B1
Experiment: mitochondria pulldown (MTS assay), Western blot quantification; HEK293T cells; triplicate experiments; read off a plot

Row | percent of parent | Variant
1 | ~2% | chain 1 V49E
